Laboratory results reported in US7038020 (ZLB BIOPLASMA, dated 2006).
Residue numbers refer to the chain shown, from its start.

T1: Rhesus D antigen (human, UniProt Q02161 2-417)
T1 construct: whole, on cells; R1R1 cells also carry C and e; also called RhD; on rbc R1R1 (CDe/CDe, CCDDee)
T1 sequence (looked up): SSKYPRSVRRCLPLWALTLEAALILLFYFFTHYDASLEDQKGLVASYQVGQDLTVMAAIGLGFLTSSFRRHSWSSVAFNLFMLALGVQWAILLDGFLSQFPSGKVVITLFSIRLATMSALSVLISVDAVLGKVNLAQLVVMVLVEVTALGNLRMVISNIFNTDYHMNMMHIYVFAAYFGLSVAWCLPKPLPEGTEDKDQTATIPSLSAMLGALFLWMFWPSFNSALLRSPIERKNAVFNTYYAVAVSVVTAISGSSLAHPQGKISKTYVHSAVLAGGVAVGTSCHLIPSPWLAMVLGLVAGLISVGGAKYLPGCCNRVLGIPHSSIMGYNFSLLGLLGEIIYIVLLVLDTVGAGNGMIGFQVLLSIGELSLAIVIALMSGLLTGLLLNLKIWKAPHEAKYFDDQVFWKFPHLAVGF

T2: Rhesus negative rbc, phenotype ccddee (Rhesus c and e antigens, no D) (human, UniProt P18577 2-417)
T2 construct: whole, on cells; the thing tested is the whole red cell; also called rr
T2 sequence (looked up): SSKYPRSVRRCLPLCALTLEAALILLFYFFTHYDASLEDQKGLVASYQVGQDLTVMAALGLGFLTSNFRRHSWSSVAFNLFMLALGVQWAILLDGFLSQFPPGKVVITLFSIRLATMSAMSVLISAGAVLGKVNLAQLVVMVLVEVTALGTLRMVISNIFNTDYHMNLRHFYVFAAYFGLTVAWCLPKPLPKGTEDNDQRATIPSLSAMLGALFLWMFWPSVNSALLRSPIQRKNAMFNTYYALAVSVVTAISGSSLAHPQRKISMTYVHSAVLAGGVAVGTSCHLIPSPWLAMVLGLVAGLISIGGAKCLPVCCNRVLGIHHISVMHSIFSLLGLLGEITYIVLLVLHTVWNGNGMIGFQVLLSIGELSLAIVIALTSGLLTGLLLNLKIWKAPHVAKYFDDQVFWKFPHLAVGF

B1: Fab clone LD2-11 (Fab, V domains shown)
VH: QVKLLESGGGVVQPGGSLRLSCEASGFTLRSSGMHWVRQAPGKGLEWVALIWFDGSIRSYAESVKGRFTISRDTSKNTLYLQMRSLSADDTAVYYCARDKAVRGISRYNYYMDVWGKGTTVTVSS
VL: VLTQSPSSLSASIRDRVTITCRASQNIGSYLNWYQHKPGTAPKLLIYAVSALQSGVPSRFSGSRSGTDFTLTISSLQPEDFATYYCQQSYSPPYTFGQGTNLQIK
notes: human soluble Fab from pComb3 in E. coli
B2: Fab clone LD1-52 (Fab, V domains shown)
VH: B1 VH with T28A
VL: VMTQSPSSLSASVGDRVTITCRASQNIIRYLNWYQQKPGKAPRLLIYGASTLQSGVPSRFSGSGSGTDFTLTISSLQPEDFATYYCQQSYRTPPFTFGPGTKVEIK
notes: as for B1
B3: Fab clone LD1-84 (Fab, V domains shown)
VH: B1 VH
VL: VMTQSPSSLSASIGDRVTITCRASQSIIRYLNWYQHKPGKAPKLLIFAASNLQTGVPSRFSGSGSGTDFTLTISDLQPEDFATYYCQQSYSRPFTFGRGTSLDIK
notes: as for B1
B4: Fab clone LD2-4 (Fab, V domains shown)
VH: B1 VH
VL: VMTQSPSSLSASVGDRVTITCRTSQTISRNLNWYQQKPGKAPKLLIYATSSLQSGVPSRFSGSGSGTDFTLTINSLQPEDFATYYCQQSYTTPSFGQGTKVEIK
notes: as for B1
B5: Fab clone LD2-17 (Fab, V domains shown)
VH: QVKLLESGGGVVQPGGSLRLSCVASGFTFRSYGMHWVRQAPGKGLEWVAFIWFDGSNKGYVDSVKGRFTISRDNSKNTLYLQMKSLRAEDTAVYYCAREKALRGISRYNYYLDVWGKGTTVTVSS
VL: VMTQSPFSLSASVGDRVTITCRASQNIRSFLSWYQQKPGTAPKLLIYAASRLQSGVPSRFSGSGSGTDFTLTISTLQPEDFATYYCQQSYSAPWTFGQGTKLEIK
notes: as for B1
B6: Fab clone LD2-5 (Fab, V domains shown)
VH: B5 VH with V11L, T78M, K84N, T119A
VL: VMTQSPSSLSASIGDRVTITCRASQSVTRSLNWYQQKPGKAPRLLIFAASTLQSGVPSRFSGSGSGTDFTLTISSLQPEDFGTYYCQQNYRTPQWTFGQGTKVEIK
notes: as for B1
B7: Fab clone LD2-20 (Fab, V domains shown)
VH: B5 VH with F29S
VL: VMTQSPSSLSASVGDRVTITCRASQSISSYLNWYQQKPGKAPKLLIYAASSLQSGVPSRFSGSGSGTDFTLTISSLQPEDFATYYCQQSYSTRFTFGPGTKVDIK
notes: as for B1
B8: Fab clone LD1-117 (Fab, V domains shown)
VH: QVKLLESGGGVVQPGKSLRLSCAASGFSFNSHGMHWVRQAPGKGLEWVAFIWFDGSNKYYADSVKGRFTITRDNSKNTLYLQMNSLRAEDTAVYYCARETSVRLGYSRYNYYMDVWGKGTTVTISS
VL: VMTQSPSSLSASVGDRVTITCRASQSIRSHLNWYQQKPGKAPKLLIYAASSLQGGVPSRFSGSGSGTDFTLTISSLQPEDFATYYCQQSYRAPQWTFGQGTKVEIK
notes: as for B1
B9: Fab clone LD1-40 (Fab, V domains shown)
VH: QVKLLESGGGVVQPGRSLRLSCIASGFTLRNYAMHWVRQAPGKGLEWVAGIWFDGSNKNYADSVKGRFTISRDNSKNTLYLQLNSLRDEDTAVYYCARERAARGISRFYYYMDVWGKGTTVTVSP
VL: VMTQSPSSLSASVGDRVTITCRASQSIRSHLNWYQQKPGKAPKLLIYGASTLQSGVPSRFSGSGSGAVFTLTIASLQPEDFATYYCQESYSNPLITFGQGTRLETK
notes: as for B1
B10: Fab clone LD1-110 (Fab, V domains shown)
VH: B9 VH with Y80F, Q82H, L83M, D88A, V93T, A102I, F108Y, Y109N, P125S
VL: VMTQSPSSLSASVGDRVTITCRASQSIRSSLNWYQQKPGKAPKVLIYAASSLQSGVPSRFSGRGSGTDFTLTISSLQPEDFATYYCQQSSSSSWTFGQGTKVEIK
notes: as for B1
B11: Fab clone LD1/2-6-3 (Fab, V domains shown)
VH: QVKLLESGGGVVQPGGSLRVACVASGFTFRNFGMHWVRQAPGKGLEWVAFIWFDASNKGYGDSVKGRFTVSRDNSKNTLYLQMNGLRAEDTAVYYCAREKAVRGISRYNYYMDVWGKGTTVTVSS
VL: VMTQSPSSLSASVGDRVTITCRASQSIIRYLNWYQHKPGKAPKLLIHTASSLQSGVPSRFSGSVSGTDFTLTISSLQPEDFATYYCQQSYTTPYTFGQGTKLQIK
B12: Fab clone LD1/2-6-33 (Fab, V domains shown)
VH: B11 VH
VL: B11 VL with S8F, T48A
B13: Fab clone LD2-14 (Fab, V domains shown)
VH: B11 VH
VL: VMTQSPSSLSASVGDRVTITCRASQSIINNLNWYQQKPGKAPELLIYAASSLQSGVPSRFRGSGSGRDFTLTVTSLQPEDFATYYCQQSYSTLWTFGQGTKVEIK
notes: as for B1

molecular target: T1, Rhesus D antigen; assay: haemagglutination, rbc

Binder	binding result
B1	binds
B2	binds
B3	binds
B4	binds
B5	binds
B6	binds
B7	binds
B8	binds
B9	binds
B10	binds

molecular target: T1, Rhesus D antigen; assay: indirect haemagglutination, rbc CCDDee

Binder	binding result
B11	binds
B12	binds

molecular target: T2, Rhesus negative rbc, phenotype ccddee …; assay: indirect haemagglutination, rbc ccddee

Binder	binding result
B11	no binding
B12	no binding

molecular target: T2, Rhesus negative rbc, phenotype ccddee …; assay: indirect haemagglutination, Fab fragment, rbc rr

Binder	binding result
B13	no binding

molecular target: T1, Rhesus D antigen; assay: indirect haemagglutination, Fab fragment, rbc R1R1

Binder	binding result
B13	binds
